Measurements published in publication PMC11576762.

Target: human TPC1 with C-terminal mVenus (human) (UniProt Q9ULQ1)
Assay: FRET or BRET; Two-hybrid FRET in live HEK293 cells; donor mTq2 constructs (0.7 µg DNA), acceptor mVenus constructs (1.5 µg DNA); confocal imaging, regions of interest around mVenus-positive lysosomes; maximum FRET efficiency from two-hybrid curves; no apilimod

- FRET efficiency: 29%
Substance: mTq2-Rab5 (from UniProt P20339 1-215) (natural protein)
